Results: article PMC4380455 (PLoS ONE, 2015)

B1: TM1088B (natural protein, T. maritima, UniProt D3KFX8 1-218, looked up)
chain: MKVIIIGGETTAYYLARSMLSRKYGVVIINKDRELCEEFAKKLKATIIHGDGSHKEILRDAEVSKNDVVVILTPRDEVNLFIAQLVMKDFGVKRVVSLVNDPGNMEIFKKMGITTVLNLTTLITNTVEALIFPDEFSSIIPLEQGIEFLSVNVEEDSPVVGKKLKDLPLPRDSIIAAIVRGGVLVVPRGDTEILSGDKLYVIVSAEAKETVEETLLGR
notes: TM1088B of Thermotoga maritima MSB8 (DSM3109), full length, residues 1-218, 24.0 kDa; UniProt D3KFX8_THEMA; also called N1 and C1 domains
B2: TM1088A (natural protein, T. maritima, UniProt D3KFX7 1-143, looked up)
chain: MSKKQKSKYIVIFGCGRLGSLIANLASSSGHSVVVVDKNEYAFHRLNSEFSGFTVVGDAAEFETLKECGMEKADMVFAFTNDDSTNFFISMNARYMFNVENVIARVYDPEKIKIFEENGIKTICPAVLMIEKVKEFIIGSEED
notes: TM1088A of Thermotoga maritima MSB8 (DSM3109), full length, residues 1-143, 16.0 kDa; UniProt D3KFX7_THEMA; first open reading frame of the TM1088 locus; The same construct was purified alone (2G1U) and in complex with untagged TM1088B (3L4B) from one plasmid by different purification schemes; AMP co-purified with it; Tag residues are numbered Met(-11) to 0; also called TM_1087.1; N2 domain; …
B3: TM1088B C-terminal domain (domain or fragment, T. maritima, UniProt D3KFX8 140-218, looked up)
chain: IPLEQGIEFLSVNVEEDSPVVGKKLKDLPLPRDSIIAAIVRGGVLVVPRGDTEILSGDKLYVIVSAEAKETVEETLLGR
notes: TM1088B of Thermotoga maritima MSB8 (DSM3109), C-terminal domain, residues 140-218; UniProt D3KFX8_THEMA; Crystallised with the tag intact; also called TM1088B (residues 140-218); C1 domain; source: E. coli HK100, plasmid pSpeedET-TM1088B, purified (Ni-NTA agarose)

Assays:
TM1088A = molecular target: T1, TM1088A (Thermotoga maritima, UniProt D3KFX7); test: X-ray crystal structure, […] Å; format: binding; settings: AMP co-purified from E. coli host, not added; nucleotide site GXGXXG (Gly14/Gly16/Gly19), Arg17, Ala59, Arg105; crystallised pH 6.5
T1 construct: gene TM1088

[1] = molecular target: the molecule itself; test: crystal structure; TM1088A:TM1088B octameric assembly (4 TM1088A, 4 TM1088B, 4 AMP in the asymmetric unit), 3.45 Å, PDB 3L4B; complex at 3 mg/ml with NADH added 1.1:1.0; 0.1 M magnesium chloride, 15% PEG 4000, 0.1 M HEPES pH 7.0
[2] = molecular target: the molecule itself; test: crystal structure; TM1088A alone, 1.50 Å, PDB 2G1U; one molecule in the asymmetric unit, dimer formed in the crystal lattice; 40% MPD, 5% PEG-8000, 0.1 M cacodylate pH 6.5, 293 K
TM1088B = molecular target: B1; test: crystal structure; TM1088A:TM1088B octameric assembly (4 TM1088A, 4 TM1088B, 4 AMP in the asymmetric unit), 3.45 Å, PDB 3L4B; complex at 3 mg/ml with NADH added 1.1:1.0; 0.1 M magnesium chloride, 15% PEG 4000, 0.1 M HEPES pH 7.0; settings: both partners purified
[3] = molecular target: the molecule itself; test: crystal structure; TM1088B C-terminal domain (140-218) alone, tag intact, 1.55 Å, PDB 3JXO; two chains in the asymmetric unit; 25% ethylene glycol, 293 K

Molecule: Nc1ncnc2c1ncn2[C@@H]1O[C@H](COP(=O)(O)O)[C@@H](O)[C@H]1O [AMP]
X-ray crystal structure, 1.50 Å (TM1088A): AMP was co-purified with TM1088A and appears in both the high-resolution TM1088A structure

Molecule: B1
stoichiometry N [1]: 2

Molecule: B2
stoichiometry N [2]: 2
binding result (TM1088B): binds

Molecule: B3
stoichiometry N [3]: 2
